Assay results: paper PMC3017643 (Journal of molecular biology, 2010)

How the values were obtained:
[1] = molecular target: full-length β-catenin (residues 1–781) (murine) (UniProt Q02248); test: ITC
β-catenin 1-781 = β-catenin 1-781 (UniProt Q02248); test: isothermal titration calorimetry; settings: reference: non-phosphorylated Lef-1(1–63); sites S40
[2] = molecular target: T1, full-length β-catenin (residues 1–781) (murine, UniProt Q02248 1-781); test: ITC
T1 sequence (looked up): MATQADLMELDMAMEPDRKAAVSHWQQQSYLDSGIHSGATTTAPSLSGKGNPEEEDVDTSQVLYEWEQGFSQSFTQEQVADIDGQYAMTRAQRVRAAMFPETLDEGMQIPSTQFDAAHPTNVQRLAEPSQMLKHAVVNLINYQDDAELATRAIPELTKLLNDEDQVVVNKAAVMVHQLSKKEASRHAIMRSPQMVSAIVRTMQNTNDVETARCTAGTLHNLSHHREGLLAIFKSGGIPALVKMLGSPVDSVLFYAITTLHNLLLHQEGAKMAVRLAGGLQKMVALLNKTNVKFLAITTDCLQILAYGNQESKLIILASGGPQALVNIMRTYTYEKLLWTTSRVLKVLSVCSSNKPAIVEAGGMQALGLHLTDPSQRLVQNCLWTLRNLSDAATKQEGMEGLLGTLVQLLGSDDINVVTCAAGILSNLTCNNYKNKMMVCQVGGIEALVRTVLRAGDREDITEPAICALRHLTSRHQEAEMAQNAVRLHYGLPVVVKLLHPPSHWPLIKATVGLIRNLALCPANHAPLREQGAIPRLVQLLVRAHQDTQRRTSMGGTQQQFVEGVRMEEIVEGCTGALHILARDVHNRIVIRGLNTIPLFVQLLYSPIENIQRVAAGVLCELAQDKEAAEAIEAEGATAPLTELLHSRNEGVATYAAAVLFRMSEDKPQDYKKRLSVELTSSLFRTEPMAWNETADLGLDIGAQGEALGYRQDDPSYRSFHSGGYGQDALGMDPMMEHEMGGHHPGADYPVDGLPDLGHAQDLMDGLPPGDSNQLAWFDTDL

Molecule: CK2-phosphorylated murine Lef-1(1–63), HPLC-separated, as used for ITC (from UniProt P27782 1-63) (domain or fragment)
- Kd [1]: 35 nM
- dH [1]: -12.3 kcal/mol

Molecule: Lef-1 1-63 (from UniProt P27782) CK2-phosphorylated, HPLC-purified pLef-1(1–63)
- KD (β-catenin 1-781): same; reference 23 (± 3) × 10−9

Molecule: murine Lef-1(1–63), non-phosphorylated, as used for ITC (from UniProt P27782 1-63) (domain or fragment)
- dH [1]: -13.1 kcal/mol

B1: human TCF4 β-catenin binding region, residues 1–57 (domain or fragment, UniProt Q9NQB0 1-57, looked up)
chain: MPQLNGGGGDDLGANDELISFKDEGEQEEKSSENSSAERDLADVKSSLVNESETNQN
- Kd [2]: 16 nM
- dH [2]: -12.5 ± 0.1 kcal/mol
